Values quoted from earlier work in US11458170B2, “Pharmaceutical composition comprising erythrocytes encapsulating a PLP-dependent enzyme and, a non-phosphate PLP precursor” (ERYTECH PHARMA, priority 2014, dated 2022).

Key:
[1] = in vivo
[2] = not given; remark: listed apart in the source

| Plasma half-life of free PLP [1] | Compound | Plasma activity of the enzyme (24 h after IV injection, immunodeficient mice, determined in vitro without adding PLP) | Half-life in mice (mice) | Treated animals developing anti-rMETase antibodies (IgG, IgM) ([2]; macaques) | Death after anaphylactic shock ([2]; second IV injection 28 days after the first) | Anaphylactic shock after second injection ([2]; second IV injection 28 days after the first, six monkeys) |
| --- | --- | --- | --- | --- | --- | --- |
| about 15 minutes | Cc1ncc(COP(=O)(O)O)c(C=O)c1O [PLP, pyridoxal phosphate] | – | – | – | – | – |
| – | rMETase: recombinant methioninase produced in Escherichia coli from the Pseudomonas putida gene (Sun et al.) | undetectable | 2 h | four out of six | death of one of the two animals | in two monkeys an anaphylactic shock |
